Series [1] concerns the molecule itself. The series is described as follows: Superose 12 gel filtration. The text has this: N-terminal Deletion—The Del-8 mutant lacks the first 8 N-terminal amino acids of PlyCB but retains full binding activity. Formation of a stable octamer is confirmed by comparing the elution profile of the Del-8 PlyCB mutant on a Superose 12 gel to Bio-Rad gel filtration standards. Accordingly, the N-terminal region can be completely deleted and not affect formation of the stable octamer. Given the non-structural role of this sequence, this region can be modified or engineered.
On the technique in general: Size exclusion chromatography separates by hydrodynamic size, large species first.

Series [2] concerns the target T1, PlyCA (heavy chain of the streptococcal C1 bacteriophage lysin PlyC) (streptococcal C1 bacteriophage, UniProt Q7Y3F1 2-465).
T1 construct: One PlyCA for eight PlyCB in the holoenzyme (about 114 kDa by gel filtration); also called PlyC heavy chain; plyCA gene product
T1 sequence (looked up): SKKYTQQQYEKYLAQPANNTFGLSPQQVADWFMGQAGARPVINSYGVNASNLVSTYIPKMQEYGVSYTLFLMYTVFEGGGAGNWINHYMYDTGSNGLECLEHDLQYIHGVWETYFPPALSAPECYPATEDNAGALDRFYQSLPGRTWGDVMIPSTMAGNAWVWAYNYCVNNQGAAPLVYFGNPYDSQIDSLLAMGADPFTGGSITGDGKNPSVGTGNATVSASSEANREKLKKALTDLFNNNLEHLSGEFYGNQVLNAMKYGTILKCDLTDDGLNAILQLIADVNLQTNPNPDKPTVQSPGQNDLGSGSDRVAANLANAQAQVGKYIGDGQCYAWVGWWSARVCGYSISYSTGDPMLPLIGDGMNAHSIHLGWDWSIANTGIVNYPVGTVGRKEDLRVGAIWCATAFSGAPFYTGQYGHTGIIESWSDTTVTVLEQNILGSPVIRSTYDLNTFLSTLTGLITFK
The series is described as follows: native PAGE against SDS/PAGE (two bands, PlyCA and PlyCB); N-terminal sequencing of the native band gives both chains. The text has this: PlyC Consists of a Heavy Chain (PlyCA) and a Light Chain (PlyCB)—PlyC purified from C₁ bacteriophage lysates behaves as a homogeneous protein on native-gel electrophoresis (FIG. 1A). Moreover, this protein band is responsible for the lytic activity, as observed by formation of a clearing zone on an overlay of streptococci-embedded agarose (FIG. 1B). […] N-terminal sequencing of the PlyC heavy and light chains results in two unique sequences ([…] and […], respectively), and sequencing of the native band results in a dual sequence, which corresponds exactly to both chains.
Expression and Purification of the PlyC Clone—PlyC is induced with 0.5% arabinose overnight from XL1-blue/pBAD24::plyC cultures. Cells are washed in 20 mM phosphate buffer at pH 7.0 and are lysed with 20% wt/vol chloroform to yield crude PlyC. Alternatively, group C streptococci are infected with the C1 bacteriophage as previously described (Nelson et al., 2001), and phage-produced PlyC are isolated from the crude lysate. Purification of the phage-derived enzyme and the recombinant enzyme are identical to previously described methods (Nelson et al., 2001). Purified enzymes are routinely stored in PBS at 4° C. and are stable for several months. Purification of the individually expressed heavy and light chains use the same column-chromatography methods as the native enzyme. […]

Series [3] deals with the molecule itself. As to the kind of experiment: gel filtration, with and without 0.1% SDS.

B1: Del-8 PlyCB mutant (8 amino acid N-terminal deletion of PlyCB), monomer (other)
chain: NVSGVQGFLFHTDGKESYGYRAFINGVEIGIKDIETVQGFQQIIPSINISKSDVEAIRKAMKK
notes: Monomer, used for the entry on self-assembly into the octamer; also called N-terminal deletion variant of PlyCB
Take B1: the binding result in series [1] was “binds”.

B2: PlyCB octamer (wild-type) (other)
chain: SKINVNVENVSGVQGFLFHTDGKESYGYRAFINGVEIGIKDIETVQGFQQIIPSINISKSDVEAIRKAMKK
notes: Ring of eight identical PlyCB monomers, about 64 kDa; the partner of PlyCA in the PlyC holoenzyme; also called octameric protein
For B2, the binding result in series [2] is “binds”.

B3: PlyCB monomer (wild-type, light chain of the streptococcal C1 bacteriophage lysin PlyC) (other)
chain: SKINVNVENVSGVQGFLFHTDGKESYGYRAFINGVEIGIKDIETVQGFQQIIPSINISKSDVEAIRKAMKK
notes: also called PlyC light chain; plyCB gene product
For B3, in series [3], the binding result is recorded as “binds”.
